Source: patent US20260116966A1 (KEYMED BIOSCIENCES CHENGDU, published 2026)

T1: Cynomolgus GPRC5D (Cynomolgus, UniProt Q9NZD1 1-343 (human entry))
T1 construct: Full length, on stably transfected cells (HEK293-cyGPRC5D, CHO-cyGPRC5D); also called cyGPRC5D
T1 chain: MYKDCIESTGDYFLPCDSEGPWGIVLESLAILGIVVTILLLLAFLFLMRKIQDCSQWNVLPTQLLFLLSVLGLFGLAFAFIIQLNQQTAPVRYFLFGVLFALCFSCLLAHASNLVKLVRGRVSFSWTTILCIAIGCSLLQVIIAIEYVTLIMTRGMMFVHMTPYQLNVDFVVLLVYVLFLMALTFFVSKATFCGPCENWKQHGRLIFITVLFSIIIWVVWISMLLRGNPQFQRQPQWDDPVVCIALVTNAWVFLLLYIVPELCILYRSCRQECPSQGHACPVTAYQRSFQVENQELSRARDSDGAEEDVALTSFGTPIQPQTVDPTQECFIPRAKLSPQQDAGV


Legend:
[1] = target: T1, Cynomolgus GPRC5D; experiment: flow cytometry, CHO-cyGPRC5D cells
Method: (§1) The binding of the antibodies to human and Cynomolgus GPRC5D stably transfected cells was detected by flow cytometry. […] Then, 100 μl/well of the cell suspension was added to a 96-well U-shaped plate, and centrifuged at 300 g for 5 min. The supernatant was discarded. 100 μL per well of serially diluted antibody was added (initial concentration: 200 nM, 3-fold dilution, 12 gradients), and incubated at 4° C. for 45 min. The secondary antibody 50 μL/well of Alexa Fluro647 labeled goat anti-human IgG Fc (1:300 dilution) was added, incubated on ice for 45 min, and detected by flow cytometry.

[2] = target: T2, human GPRC5D (human, UniProt Q9NZD1 1-345); experiment: flow cytometry on CHO-hGPRC5D cells
T2 construct: Full length, on stably transfected cells (HEK293-hGPRC5D, CHO-hGPRC5D); Also used here for the endogenous GPRC5D of the GPRC5D+ myeloma lines MM.1R, MM.1S and NCI-H929; also called hGPRC5D; G-protein-coupled receptor family C group 5 member D
T2 sequence (Q9NZD1 whole entry): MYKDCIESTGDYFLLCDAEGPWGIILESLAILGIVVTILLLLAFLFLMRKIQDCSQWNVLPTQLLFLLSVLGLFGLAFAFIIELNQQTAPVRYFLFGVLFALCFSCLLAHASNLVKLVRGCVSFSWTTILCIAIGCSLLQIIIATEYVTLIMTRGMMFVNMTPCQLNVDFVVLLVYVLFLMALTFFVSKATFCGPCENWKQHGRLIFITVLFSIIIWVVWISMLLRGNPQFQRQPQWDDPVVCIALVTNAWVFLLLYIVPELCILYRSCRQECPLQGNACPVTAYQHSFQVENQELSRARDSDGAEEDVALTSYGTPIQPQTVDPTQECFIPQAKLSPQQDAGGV
Method: as §1

[3] = target: T2, human GPRC5D; experiment: cell-based or functional assay
[4] = target: T2, human GPRC5D; experiment: flow cytometry, MM.1R cells
Method: The cell suspension was adjusted to a concentration of 5×10⁵ cells/mL, and 100 μL per well was added to a 96-well U-shaped plate, centrifuged at 300 g for 5 min. The supernatant was discarded. 100 μL per well of serially diluted antibody was added (initial concentration: 200 nM, 3-fold dilution, 10 gradients), and incubated at 4° C. for 60 min. The primary antibody was washed away, and 50 μL/well Alexa Fluro647 labeled goat anti-human IgG FC (1:300 dilution) was added, and incubated for 20 min. After washing once, 50 μL/well of PI was added, incubated for 5 min, and detected by flow cytometry.

| binding result [1] | binding result [2] | TDCC EC50 (pM), MM.1R [3] [pM] | EC50 [4] [nM] | Maximum fluorescence intensity (MFI, 200 nM) [4] [MFI] | Binder |
| --- | --- | --- | --- | --- | --- |
| binds | binds | – | – | – | anti-GPRC5D chimeric antibody 14D1 (antibody, V domains shown) VH: EVQLQQSGPDLVKPGASVKMSCKASGYKFTSYVMYWVKQKTGQGLEWIGYINPYNDGTKYNEKFKGKATLTSDKSSSTAYMEFSSLTSEDSAVYYCVRGGMLTTRSLFAYWGQGTLVTVSA VL: DIQMTQSPSSLSASLGERVSLTCRASQEISGYFSWLQQKPDGTIKRLIYAASTLDSGVPKRFSGSRSGSDYSLTISSLESEDFADYYCLQYASYPPTFGGGTKLEIK |
| binds | binds | – | – | – | anti-GPRC5D chimeric antibody 17D12 (antibody, V domains shown) VH: EVQLQQSGPELVKPGASVKMSCKASGYTFTSYVMYWVKQKPGQVLEWIGYINPYNDGTKYNERFTGKATLTSDKSSSTAYMELSSLTSEDSAVYYCARGGMLTTRSLFLYWGQGTLVTVSA VL: DIVMSQSPSSLSASLGERVSLTCRASQEISGYFSWLQQKPDGTIKRLIYAASTLDSGVPKRFSGSRSGSDYSLTISSLESEDFADYYCLQYASYPPTFGGGTKLEIK |
| binds | binds | – | – | – | anti-GPRC5D chimeric antibody 15A6 (antibody, V domains shown) VH: EVQLQQSGPELVKPGASVKMSCKASGYTFTNYVMYWVKQKPGQVLEWIGYINPYNDGTKYNEKFTGKATLTSDKSSSTAYMELSSLTSEDSAVYYCARGGMLTTRSLFVYWGQGTLVTVSA VL: DIQMTQSPSSLSASLGERVSLTCRASQEISGYFSWLQQKPDGTIKRLIYAASTLDSGVPKRFSGSRSGSDYSLTISSLESEDFADYYCLQYASYPPTFGGGTKLEIK |
| binds | binds | – | – | – | anti-GPRC5D chimeric antibody 12A4 (antibody, V domains shown) VH: EVQLQQSGPELVKPGASVKMSCKASEYTFTNYVMYWVKQKPGQGLEWIGYINPYNDGTKYNEKFKGKATLTSDKSSSTAYMELSSLTSEDSAVYYCVRGGMLTTRSLFTYWGQGTLVTVSA VL: DIQMTQSPSSLSASLGERVSLTCRASQRISGYLSWLQQKPDGTIKRLIYAASTLDSGVPKRFSGSRSGSDYSLTISSLESEDFADYYCLQYASYPPTFGGGTKLEIK |
| binds | binds | – | – | – | anti-GPRC5D chimeric antibody 1C1 (antibody, V domains shown) VH: QAYLQQSGAELVRSGASVKMSCKASGYTFTSYNMHWVKQTPGQGLEWIGYIYPGNGGTNYNQKFKAKATLTADTSSSTAYMQISSLTSEDSAVYFCARGYGYRYWYFDVWGAGTTVTVSS VL: NIVLTQSPAIMSASPGEKVTMTCSASSSVRFMHWYQQKSGTSPKRWIYDTSKVASGVPARFSGSGSGTSYSLTIRSMEAEDAATYYCQQWSSNPLTFGAGTKLELK |
| binds | binds | – | – | – | anti-GPRC5D chimeric antibody 18C3 (antibody, V domains shown) VH: EVQLVESGGDLVKPGGSLKLSCAASGFTFSSYGMSWVRQTPDKRLEWVATISSGGSYTYYPDSVKGRFTISRDNAKNTLYLQMSSLKSEDTAMYYCARHEARATFDYWGQGTTLTVSS VL: DIVMTQAAPSVPVTPGESVSISCRSSKSLLHSNGNTYLYWFLQRPGQSPQLLIYRMSNLASGVPDRFSGSGSGTAFTLRISRVEAEDVGVYYCMQHLEYPFTFGSGTKLEIK |
| binds | binds | – | – | – | anti-GPRC5D chimeric antibody 8C2 (antibody, V domains shown) VH: EVQLVESGGDLVKPGGSLKLSCAASGFTFSSYGMSWVRQTPDKRLEWVATISSGGSYTYYPDSVKGRFTISRDNAKNTLYLQMSSLKSEDTAMYYCARHGGSSSYVMDYWGQGTSVTVSS VL: DIVMTQAAPSVPVTPGESVSISCRSSKSLLHSNGNTYLYWFLQRPGQSPQLLIYRMSNLASGVPDRFSGSGSGTAFTLRISRVEAEDVGVYYCMQHLEYPFTFGSGTKLEIK |
| binds | binds | – | – | – | anti-GPRC5D chimeric antibody 10B1 (antibody, V domains shown) VH: QVQLQQSGAELARPGASVKMSCKASGYIFTSYTMYWVKQRPGQGLEWIGYINPSSGYTNYNQKFKDKATLTADKSSSTAYMQLSSLTSEDSAVYYCARWGGNERLYYYAMDYWGQGTSVTVSS VL: QIVLTQSPAIMSASPGEKVTITCSASSSVSYMYWFQQKPGTSPKLWIYGTSNLASGVPARFSGSGSGTSYSLTISRMEAEDAATYYCQQRSSYPLTFGAGTKLELK |

Second part, the binder before the results:

| Binder | binding result [1] | binding result [2] | TDCC EC50 (pM), MM.1R [3] [pM] | EC50 [4] [nM] | Maximum fluorescence intensity (MFI, 200 nM) [4] [MFI] |
| --- | --- | --- | --- | --- | --- |
| anti-GPRC5D chimeric antibody 10E8 (antibody, V domains shown) VH: EVQLQQSGPELVKPGASMKISCKASGYSFTGYTMNWVKQRHGKNLEWIGLINPYNGGTSYNQKFKGKATLTVDKSSSTAYMELLSLTSEDSAVYYCARLPIRNGMDYWGQGTSVTVSS VL: DIVLTQSPATLSVTPGDSVSLSCRASQSISNNLHWYQQKSHESPRLLVKFASLSISGIPSRFSGSGSGTDFTLSINSVETEDFGMYFCQQSNSWPQTFGGGTKLEIK | binds | binds | – | – | – |
| anti-GPRC5D chimeric antibody 22C1 (antibody, V domains shown) VH: EVQLQQSGPELVKPGTSMKISCKASGYSFTGYTMNWVKQSHGKNLEWIGLINPYNGGSNYNLKFKGKATLTVDKSSNTAYMELLSLTSEDSAVYYCARWGLRNAMDYWGQGTSVTVSS VL: DIVVTQSPATLSVTPGDSVSLSCRASQSISNNLHWFQQKSHESPRLLIKYASQSISGIPSRFSGSGSGTDFTLSINSVETEDFGMYFCQQSNSWPQTFGGGTKLEIK | binds | binds | – | – | – |
| anti-GPRC5D chimeric antibody 18E7 (antibody, V domains shown) VH: EVQLQQSGPELVKPGASVKMSCKASEYTFTNYVMYWVKQKPGQGLEWIGYINPYNDGTKYNEKFKGKATLTSDKSSSTAYMELSSLTSEDSAVYYCVRGGMLTTRSLFAYWGQGTLVTVSA VL: DIQMTQSPSSLSASLGERVSLTCRASQRISGYLSWLQQKPDGTIKRLIYAASTLDSGVPKRFSGSRSGSDYSLTISSLESEDFADYYCLQYASYPPTFGGGTKLEIK | binds | binds | – | – | – |
| anti-GPRC5D chimeric antibody 15H5 (antibody, V domains shown) VH: EVQLQQSGPELVKPGASVKMSCMASGYTFTSYVMYWVKQKPGQGLEWIGYINPYNDGTKYNEKFKGKATLTSDKSSSTAYMELSSLTSEDSAVYYCARGGMLTTRSLFVYWGHGTLVTVSA VL: DIQMTQSPSSLSASLGERVSLTCRASQEISGYLSWLQQKPDGTIKRLIYAASTLDSGVPKRFSGSRSGSDYSLTISSLESEDFADYYCLQYASYPPTYGGGTKLEIK | binds | binds | – | – | – |
| anti-GPRC5D chimeric antibody 19E2 (antibody, V domains shown) VH: EVQLQQSGPELVKPGASVKMSCKASEYTFTNYVMYWVKQKPGQGLEWIGYINPYNDGTKYNEKFKGKATLTSDKSSSTAYMELSSLTSEDSAVYYCVRGGMLTTRSLFAYWGQGTLVTVSA VL: DIQMTQSPSSLSASLGERVSLTCRASQRISGYLSWLQQKPDGTIKRLIYAASTLDSGVPKRFSGSRSGSDYSLTISSLESEDFADYYCLQYANYPPTFGGGTKLEIK | binds | binds | – | – | – |
| 2E1 × CD3 GPRC5D×CD3 κλ bispecific antibody (bispecific antibody, human IgG4, V domains shown, Human IgG4 knob-into-hole Fc with Ser228Pro, Leu235Glu, Pro329Ala; kappa light chain on the GPRC5D arm, lambda on the CD3 arm) VH 1: QVQLVQSGAEVKKPGSSVKVSCKASGYTFTRYWMHWVREAPGQGLEWMGEFNPSNGRINYNEKFQGRVTLTIDKSSSTAYMELSSLRSEDTAVYYCTRGFAYWGQGTLVTVSS VL 1: EIVLTQSPATLSLSPGERATLSCRASSTVSYIHWYQKKPGQAPRRLIYDTSKLASGIPARFSGSGSGTDYTLTISSLEPEDFAVYYCQQWTTNPWTFGGGTKVEIK VH 2: EVQLVESGGGLVQPGGSLRLSCAASGFTFNTYAMNWVRKAPGKGLEWVGRIRSKYNNYATYYADSVKDRFTISRDDSKNSLYLQMNSLKTEDTAVYYCVRHGNFGNSYVSWFAYWGQGTLVTVSS VL 2: QAVVTQEPSLTVSPGGTVTLTCRSSTGAVTTSNYANWVQEKPGQAPRGLIGGTNKRAPWTPARFSGSLLGGKAALTITGAQAEDEAEYYCVLWYSNLWVFGGGTKLTVL | – | – | 161 | 6.88 | 65700 |
